Test results taken from patent US20040072743A1 (priority 2000, published 2004).

Key:
[1] = female, NMRI, mouse, in vivo
[2] = female, NMRI, mouse, in vivo, sc

H-KFFKFFKFFK-b.cypr-g.abu-ACTTTGTCGCCA-NH2 [Compound IV]
oral bioavailability (AUC [p.o. adm]/AUC [i.v. adm])×100% [1]: 24%
subcutaneous bioavailability (AUC [s.c.adm]/AUC [i.v. adm])×100% [2]: 78%

H-KFFKFFKFFK-achc-b.Ala-TTCTAACATTTA-NH2 [Compound V]
oral bioavailability (AUC [p.o. adm]/AUC [i.v. adm])×100% [1]: 9%
subcutaneous bioavailability (AUC [s.c.adm]/AUC [i.v. adm])×100% [2]: 68%

H-KFFKFFKFFK-g.abu-PheGly-TTCTAACATTTA-NH2 [Compound VI]
oral bioavailability (AUC [p.o. adm]/AUC [i.v. adm])×100% [1]: 6%
subcutaneous bioavailability (AUC [s.c.adm]/AUC [i.v. adm])×100% [2]: 62%

H-KFFKFFKFFK-pfPhe-cha-TTCTAACATTTA-NH2 [Compound VII]
oral bioavailability (AUC [p.o. adm]/AUC [i.v. adm])×100% [1]: 54%
subcutaneous bioavailability (AUC [s.c.adm]/AUC [i.v. adm])×100% [2]: 69%
